Assay results: patent US20150132313A1

Legend:
[1] = molecular target: human leukocyte IFN; experiment: cell-based or functional assay
[2] = molecular target: IFNα2a (human) (UniProt P01563); experiment: cell-based or functional assay

Chain of MEDI-545 (VH): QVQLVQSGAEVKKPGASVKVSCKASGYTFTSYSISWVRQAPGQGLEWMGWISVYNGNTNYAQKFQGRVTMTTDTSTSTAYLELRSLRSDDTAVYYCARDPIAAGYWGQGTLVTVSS
Chain of MEDI-545 (VL): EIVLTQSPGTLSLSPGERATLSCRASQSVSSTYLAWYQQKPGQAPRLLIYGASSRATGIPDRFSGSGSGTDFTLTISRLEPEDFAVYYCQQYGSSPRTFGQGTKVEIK

Work on MEDI-545 (antibody) yielded a neutralization of ISG15, USP18 and IFIT2 overexpression in keratinocytes stimulated with 150 I.U./mL leukocyte IFN [1] of 70 to 100%, an HERC5 gene expression (Average), 107 IFN + 545 (107 IFN alone 41.12; 107 VEH 1.00) [2] of 6.29 and an HERC5 gene expression (Average), 163 IFN + 545 (163 IFN alone 75.81; 163 VEH 1.05) [2] of 7.83. It also gave an HERC5 gene expression (Average), 175 IFN + 545 (175 IFN alone 74.58; 175 VEH 1.19) [2] of 6.89, an IFIT1 gene expression, Average (TAQMAN, whole blood + 100 IU IFNα2a + MEDI-545; donor 107; IFN alone 80.21) (relative expression) [2] of 13.1 and an IFIT1 gene expression, Average (TAQMAN, whole blood + 100 IU IFNα2a + MEDI-545; donor 163; IFN alone 51.65) (relative expression) [2] of 7.6. For the same substance, the IFIT1 gene expression, Average (TAQMAN, whole blood + 100 IU IFNα2a + MEDI-545; donor 175; IFN alone 82.98) (relative expression) [2] was 8.4, the IFIT3 gene expression, Average (TAQMAN, whole blood + 100 IU IFNα2a + MEDI-545; donor 107; IFN alone 38.43) (relative expression) [2] was 6.78 and the IFIT3 gene expression, Average (TAQMAN, whole blood + 100 IU IFNα2a + MEDI-545; donor 163; IFN alone 25.94) (relative expression) [2] was 4.58. The IFIT3 gene expression, Average (TAQMAN, whole blood + 100 IU IFNα2a + MEDI-545; donor 175; IFN alone 35.02) (relative expression) [2] was 5.28, the IL6ST gene expression, Average (TAQMAN, whole blood + 100 IU IFNα2a + MEDI-545; donor 107; IFN alone 3.54) (relative expression) [2] was 2.62 and the IL6ST gene expression, Average (TAQMAN, whole blood + 100 IU IFNα2a + MEDI-545; donor 163; IFN alone 7.69) (relative expression) [2] was 4.18. For the same substance, the IL6ST gene expression, Average (TAQMAN, whole blood + 100 IU IFNα2a + MEDI-545; donor 175; IFN alone 7.62) (relative expression) [2] was 2.95, the IRF7 gene expression, Average (TAQMAN, whole blood + 100 IU IFNα2a + MEDI-545; donor 107; IFN alone 18.53) (relative expression) [2] was 3.42 and the IRF7 gene expression, Average (TAQMAN, whole blood + 100 IU IFNα2a + MEDI-545; donor 163; IFN alone 17.16) (relative expression) [2] was 2.92. The IRF7 gene expression, Average (TAQMAN, whole blood + 100 IU IFNα2a + MEDI-545; donor 175; IFN alone 24.65) (relative expression) [2] was 2.43, the LY6E gene expression, Average (TAQMAN, whole blood + 100 IU IFNα2a + MEDI-545; donor 107; IFN alone 19.09) (relative expression) [2] was 3.5 and the LY6E gene expression, Average (TAQMAN, whole blood + 100 IU IFNα2a + MEDI-545; donor 163; IFN alone 13.52) (relative expression) [2] was 4.8. For the same substance, the LY6E gene expression, Average (TAQMAN, whole blood + 100 IU IFNα2a + MEDI-545; donor 175; IFN alone 19.32) (relative expression) [2] was 3.74, the MARCKS gene expression, Average (TAQMAN, whole blood + 100 IU IFNα2a + MEDI-545; donor 163; IFN alone 2.59) (relative expression) [2] was 1.55 and the MARCKS gene expression, Average (TAQMAN, whole blood + 100 IU IFNα2a + MEDI-545; donor 175; IFN alone 2.59) (relative expression) [2] was 0.55. It also gave an OAS1 gene expression (Average), 107 IFN + 545 (107 IFN alone 15.11; 107 VEH 1.00) [2] of 3.45, an OAS1 gene expression (Average), 163 IFN + 545 (163 IFN alone 14.19; 163 VEH 0.77) [2] of 3.05 and an OAS1 gene expression (Average), 175 IFN + 545 (175 IFN alone 22.09; 175 VEH 1.62) [2] of 4.04. The OAS3 gene expression (Average), 107 IFN + 545 (107 IFN alone 49.04; 107 VEH 1.00) [2] was 7.03, the OAS3 gene expression (Average), 163 IFN + 545 (163 IFN alone 42.01; 163 VEH 0.49) [2] was 14.6 and the OAS3 gene expression (Average), 175 IFN + 545 (175 IFN alone 37.87; 175 VEH 1.27) [2] was 3.92. It also gave an RAB8B gene expression, Average (TAQMAN, whole blood + 100 IU IFNα2a + MEDI-545; donor 163; IFN alone 2.20) (relative expression) [2] of 1.18, an RAB8B gene expression, Average (TAQMAN, whole blood + 100 IU IFNα2a + MEDI-545; donor 175; IFN alone 2.63) (relative expression) [2] of 1.15 and an RSAD2 gene expression (Average), 107 IFN + 545 (107 IFN alone 109.64; 107 VEH 1.00) [2] of 9.88. It also gave an RSAD2 gene expression (Average), 163 IFN + 545 (163 IFN alone 71.47; 163 VEH 0.56) [2] of 4.39 and an RSAD2 gene expression (Average), 175 IFN + 545 (175 IFN alone 126.27; 175 VEH 1.88) [2] of 8.43.

With R347 (antibody) the HERC5 gene expression (Average), 107 IFN + R347 (107 IFN alone 41.12; 107 VEH 1.00) [2] was 55, the HERC5 gene expression (Average), 163 IFN + R3437 (163 IFN alone 75.81; 163 VEH 1.05) [2] was 95.4 and the HERC5 gene expression (Average), 175 IFN + R347 (175 IFN alone 74.58; 175 VEH 1.19) [2] was 98.2. It also gave an OAS1 gene expression (Average), 107 IFN + R347 (107 IFN alone 15.11; 107 VEH 1.00) [2] of 17.8, an OAS1 gene expression (Average), 163 IFN + R3437 (163 IFN alone 14.19; 163 VEH 0.77) [2] of 22.4 and an OAS1 gene expression (Average), 175 IFN + R347 (175 IFN alone 22.09; 175 VEH 1.62) [2] of 15.2. The OAS3 gene expression (Average), 107 IFN + R347 (107 IFN alone 49.04; 107 VEH 1.00) [2] was 76.9, the OAS3 gene expression (Average), 163 IFN + R3437 (163 IFN alone 42.01; 163 VEH 0.49) [2] was 52.6 and the OAS3 gene expression (Average), 175 IFN + R347 (175 IFN alone 37.87; 175 VEH 1.27) [2] was 34.9. It also gave an RSAD2 gene expression (Average), 107 IFN + R347 (107 IFN alone 109.64; 107 VEH 1.00) [2] of 107, an RSAD2 gene expression (Average), 163 IFN + R3437 (163 IFN alone 71.47; 163 VEH 0.56) [2] of 115 and an RSAD2 gene expression (Average), 175 IFN + R347 (175 IFN alone 126.27; 175 VEH 1.88) [2] of 91.
